The data set relates to T1, recombinant Factor C protein from Tachypleus tridentatus produced in Leishmania tarentolae.
T1 sequence: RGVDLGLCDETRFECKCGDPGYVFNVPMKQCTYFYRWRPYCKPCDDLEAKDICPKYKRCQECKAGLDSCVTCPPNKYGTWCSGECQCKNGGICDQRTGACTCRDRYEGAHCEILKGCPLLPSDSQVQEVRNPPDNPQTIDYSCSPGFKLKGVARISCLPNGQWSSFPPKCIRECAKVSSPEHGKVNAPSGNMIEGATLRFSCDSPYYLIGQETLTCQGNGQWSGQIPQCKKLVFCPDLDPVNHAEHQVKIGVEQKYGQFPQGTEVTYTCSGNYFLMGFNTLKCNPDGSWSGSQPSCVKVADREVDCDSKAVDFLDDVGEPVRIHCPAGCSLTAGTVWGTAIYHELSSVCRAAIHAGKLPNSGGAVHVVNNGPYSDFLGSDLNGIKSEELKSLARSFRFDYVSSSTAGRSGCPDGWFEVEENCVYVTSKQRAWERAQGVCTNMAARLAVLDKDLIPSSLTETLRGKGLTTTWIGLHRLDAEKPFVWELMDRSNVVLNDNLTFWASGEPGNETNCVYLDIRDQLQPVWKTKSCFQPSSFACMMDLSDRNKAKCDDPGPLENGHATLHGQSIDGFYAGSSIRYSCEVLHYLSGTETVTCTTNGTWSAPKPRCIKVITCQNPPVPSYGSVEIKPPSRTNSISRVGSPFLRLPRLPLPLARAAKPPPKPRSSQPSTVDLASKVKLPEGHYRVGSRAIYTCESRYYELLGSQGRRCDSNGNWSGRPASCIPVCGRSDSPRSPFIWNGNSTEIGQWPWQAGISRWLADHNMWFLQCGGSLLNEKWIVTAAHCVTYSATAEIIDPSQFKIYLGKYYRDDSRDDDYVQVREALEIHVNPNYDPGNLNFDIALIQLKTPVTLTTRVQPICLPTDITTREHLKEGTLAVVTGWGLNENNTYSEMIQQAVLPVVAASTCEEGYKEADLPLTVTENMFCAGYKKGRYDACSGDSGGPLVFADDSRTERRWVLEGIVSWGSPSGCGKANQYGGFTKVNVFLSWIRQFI
The settings on record: in U/mg.

As to chymotrypsin, the specific activity of activated Factor C (hydrolysis of Boc-Val-Pro-Arg-AMC) (Units/mg protein) stood at 0.658.

Source of the values: patent US20190256836.
